Results on 7 molecules are retold here after PMC3709506, “Comparative cross-linking and mass spectrometry of an intact F-type ATPase suggest a role for phosphorylation” (Nature Communications, 2013).

Sequences and labels used below:
T1: chloroplast ATP synthase (cATPase) subunit γ (Spinacia oleracea, UniProt P05435 42-364)
T1 construct: ATP synthase gamma chain, chloroplastic, Spinacia oleracea; also called γ-subunit; source: purified from spinach leaves as part of the intact F1FO chloroplast ATP synthase
T1 sequence (looked up): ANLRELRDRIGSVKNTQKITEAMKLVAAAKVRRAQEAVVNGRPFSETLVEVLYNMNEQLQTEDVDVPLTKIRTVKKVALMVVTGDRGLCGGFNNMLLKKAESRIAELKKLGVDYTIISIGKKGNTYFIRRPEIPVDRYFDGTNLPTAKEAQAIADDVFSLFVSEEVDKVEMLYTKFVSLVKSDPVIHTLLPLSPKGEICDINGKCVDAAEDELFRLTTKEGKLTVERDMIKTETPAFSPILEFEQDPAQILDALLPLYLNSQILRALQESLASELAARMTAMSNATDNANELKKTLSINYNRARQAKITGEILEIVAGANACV

B1: cATPase subunit α, dephosphorylated enzyme (natural protein, Spinacia oleracea, UniProt P06450 1-507, looked up)
chain: MATIRADEISKIIRERIEGYNREVKVVNTGTVLQVGDGIARIHGLDEVMAGELVEFEEGTIGIALNLESNNVGVVLMGDGLMIQEGSSVKATGRIAQIPVSEAYLGRVINALAKPIDGRGEITASESRLIESPAPGIMSRRSVYEPLQTGLIAIDAMIPVGRGQRELIIGDRQTGKTAVATDTILNQQGQNVICVYVAIGQKASSVAQVVTNFQERGAMEYTIVVAETADSPATLQYLAPYTGAALAEYFMYRERHTLIIYDDLSKQAQAYRQMSLLLRRPPGREAYPGDVFYLHSRLLERAAKLSSLLGEGSMTALPIVETQAGDVSAYIPTNVISITDGQIFLSADLFNAGIRPAINVGISVSRVGSAAQIKAMKKVAGKLKLELAQFAELEAFAQFASDLDKATQNQLARGQRLRELLKQPQSAPLTVEEQVMTIYTGTNGYLDSLELDQVRKYLVELRTYVKTNKPEFQEIISSTKTFTEEAEALLKEAIQEQMERFLLQEQA
notes: ATP synthase subunit alpha, chloroplastic, Spinacia oleracea; as m1 but treated with phosphatase; The whole complex was treated; also called α (dephosphorylated form)
B2: cATPase subunit ε, dephosphorylated enzyme (natural protein, Spinacia oleracea, UniProt P00833 1-134, looked up)
chain: MTLNLCVLTPNRSIWNSEVKEIILSTNSGQIGVLPNHAPTATAVDIGILRIRLNDQWLTLALMGGFARIGNNEITILVNDAERGSDIDPQEAQQTLEIAEANLRKAEGKRQKIEANLALRRARTRVEASNTISS
notes: ATP synthase epsilon chain, chloroplastic, Spinacia oleracea; as m4 but treated with phosphatase; The whole complex was treated with the phosphatase; also called ε (dephosphorylated form)
B3: chloroplast ATP synthase (cATPase) subunit ε, untreated enzyme (natural protein, Spinacia oleracea, UniProt P00833 1-134, looked up)
chain: B2 chain
modifications: phosphosite identified at S13
notes: ATP synthase epsilon chain, chloroplastic, Spinacia oleracea; also called ε-subunit; source: purified from spinach leaves as part of the intact F1FO chloroplast ATP synthase
B4: chloroplast ATP synthase (cATPase) subunit II, untreated enzyme (natural protein, Spinacia oleracea, UniProt P31853 76-222, looked up)
chain: EEIEKASLFDFNLTLPIIMAEFLFLMFALDKIYYTPLGDFMDKRDASIKEQLSGVKDTSSEVKQLEEQANAVMRAARAEISAALNKMKKETQLEVEAKLAEGRKKIEVELQEALGSLEQQKEDTIKSLDSQISALSDDIVKKVLPVS
modifications: phosphosites identified at S122, S211
notes: ATP synthase subunit b' (CF0 subunit II), chloroplastic, Spinacia oleracea; also called stator subunit II; peripheral stalk subunit II; source: purified from spinach leaves as part of the intact F1FO chloroplast ATP synthase
B5: cATPase subunit II, dephosphorylated enzyme (natural protein, Spinacia oleracea, UniProt P31853 76-222, looked up)
chain: B4 chain
notes: ATP synthase subunit b' (CF0 subunit II), chloroplastic, Spinacia oleracea; as m6 but treated with phosphatase; The whole complex was treated with the phosphatase; also called II (dephosphorylated form)
B6: chloroplast ATP synthase (cATPase) subunit β, untreated enzyme (natural protein, Spinacia oleracea, UniProt P00825 1-498, looked up)
chain: MRINPTTSDPGVSTLEKKNLGRIAQIIGPVLDVAFPPGKMPNIYNALIVKGRDTAGQPMNVTCEVQQLLGNNRVRAVAMSATDGLTRGMEVIDTGAPLSVPVGGATLGRIFNVLGEPVDNLGPVDTRTTSPIHRSAPAFTQLDTKLSIFETGIKVVDLLAPYRRGGKIGLFGGAGVGKTVLIMELINNIAKAHGGVSVFGGVGERTREGNDLYMEMKESGVINEQNIAESKVALVYGQMNEPPGARMRVGLTALTMAEYFRDVNEQDVLLFIDNIFRFVQAGSEVSALLGRMPSAVGYQPTLSTEMGSLQERITSTKEGSITSIQAVYVPADDLTDPAPATTFAHLDATTVLSRGLAAKGIYPAVDPLDSTSTMLQPRIVGEEHYEIAQRVKETLQRYKELQDIIAILGLDELSEEDRLTVARARKIERFLSQPFFVAEVFTGSPGKYVGLAETIRGFQLILSGELDSLPEQAFYLVGNIDEATAKAMNLEMESKLKK
modifications: phosphosites identified at S8, T54
notes: ATP synthase subunit beta, chloroplastic, Spinacia oleracea; K498 is called the carboxy-terminal residue; Three copies stand in the F1 head (α3β3); also called β-subunit; source: purified from spinach leaves as part of the intact F1FO chloroplast ATP synthase
B7: cATPase subunit β, dephosphorylated enzyme (natural protein, Spinacia oleracea, UniProt P00825 1-498, looked up)
chain: B6 chain
notes: ATP synthase subunit beta, chloroplastic, Spinacia oleracea; as m2 but treated with phosphatase; The whole complex was treated with the phosphatase; also called β (dephosphorylated form)

Common to all, as to details: both partners purified
Assay [1] deals with B7. As to the kind of experiment: cross-linking; comparative: dephosphorylated cATPase (calf intestinal alkaline phosphatase, 37 °C) cross-linked with 2.5 mM deuterated BS3, untreated cATPase with non-deuterated BS3, pooled; areas of extracted ion chromatograms of heavy and light cross-links compared.
Assay [2] has as its target B1. Described as above.
Assay [3] deals with T1, chloroplast ATP synthase (cATPase) …. Kind of assay: cross-linking; untreated cATPase, 1:1 mixture of 2.5 mM BS3-d4 and 2.5 mM BS3-d0, 1 h at room temperature; NuPAGE gel, in-gel digestion, LC-MS/MS, MassMatrix search, manual validation.
Assay [4] has as its target T2, chloroplast ATP synthase (cATPase) subunit α, untreated enzyme (Spinacia oleracea, UniProt P06450 1-507, phosphosites identified at S127, Y196, S369, T442).
T2 construct: ATP synthase subunit alpha, chloroplastic, Spinacia oleracea; Three copies stand in the F1 head (α3β3); also called α subunit; source: purified from spinach leaves as part of the intact F1FO chloroplast ATP synthase
The description is as above.

Assay [5] deals with B6. Described as above.

Where only a bound is given, the exact number is not on record here.

Consider B1, for which, in assay [1], the “fold decrease of cross-link intensity against the untreated enzyme (two cross-links, β loops to α C-terminal domain)” value was over 10 fold and the “fold decrease of the intensity of the K378-K498 cross-link against the untreated enzyme” value was about 5 fold.

As for B2, the binding result in assay [2] and in assay [1] was “binds” throughout.

B3: the binding result in assay [3], in assay [4] and in assay [5] was “binds” throughout.

Regarding B4, the binding result in assay [4] and in assay [5] was “binds” throughout.

Regarding B5, the binding result in assay [2] and in assay [1] was “binds” in each case.

With B6, the binding result in assay [4] is reported as “binds”.

B7: in assay [2], the binding result is given as “binds”.
